Data: patent publication US20240228660A1 (IP2IPO INNOVATIONS, published 2024)

Molecular target: human full-length VWF (human, UniProt P04275 764-2813)
Assay: SPR, Biacore T200, antibody captured on Protein A, full-length VWF as analyte, single-cycle kinetics
Experimental: Antibodies were captured on Protein A sensor chip. The system was purged using running buffer (10 mM HEPES pH 7.4, 300 mM NaCl, 3 mM EDTA, 0.05% P20) and a series S Protein A chip was docked in the Biacore T200. The surface was conditioned with 10 mM glycine-HCl pH 1.5 regeneration solution (3 injections). Each antibody was diluted to ˜0.8 μg/ml in running buffer to capture ˜350 RU on flow cells 2, 3 and 4 (flow cell 1 used as in-line reference cell). Single-cycle kinetic analysis of human full-length VWF binding to antibodies was performed using the following parameters:

Binder | Kd [nM] | koff [s⁻¹] | kon [M⁻¹ s⁻¹]
4-H3_H8_VL-par (antibody, human IgG1, kappa, V domains shown, also called 4-H3_H8 (hIgG1)) VH: QQLVESGGGVVQPGRSLRLSCAASGIDLTSNAMNWVRQAPGKGLEWIGGIYGHDTSYYAAWAKGRFTISRDSNTVYLQMNSLRAEDTATYFCARGFIYFDIWGQGTLVTVSS VL: AYDMTQTPPSLSASVGETVRIRCLASEDIASGISWYQQKPGKPPTLLIYGASNLESGVPPRFSGSGSGTDYTLTIGGVQAEDAATYYCLGGYSFSSNGLTFGAGTKVEIKT | 0.0109 | 5.99e-07 | 54900
1-A2_H0_VL-par (antibody, human IgG1, kappa, V domains shown, also called 1-A2_H0 (hIgG1)) VH: QVQLVESGGGVVQPGRSLRLSCAASGFTFSSNAMNWVRQAPGKGLEWVAGIYGHDTSYYAAWAKGRFTISRDNSKNTLYLQMNSLRAEDTAVYYCARGFIYFDIWGQGTLVTVSS VL: AIEMTQTPPSLSASVGETVRIRCLASEDIYSGISWYQQKPGKPPTLLIYGASNLESGVPPRFSGSGSGTDYTLTIGGVQAEDAATYYCLGGHSHSTTDLTFGAGTKVEIKT | 0.0176 | 6.18e-07 | 35100
1-A2_H1_VL-par (antibody, human IgG1, kappa, V domains shown, also called 1-A2_H1 (hIgG1)) VH: QVQLVESGGGVVQPGRSLRLSCAASGIDLTSNAMNWVRQAPGKGLEWVAGIYGHDTSYYAAWAKGRFTISRDNSKNTLYLQMNSLRAEDTAVYYCARGFIYFDIWGQGTLVTVSS VL: AIEMTQTPPSLSASVGETVRIRCLASEDIYSGISWYQQKPGKPPTLLIYGASNLESGVPPRFSGSGSGTDYTLTIGGVQAEDAATYYCLGGHSHSTTDLTFGAGTKVEIKT | 0.0238 | 9.49e-07 | 39800
1-A2_VH-par_VL-par (antibody, human IgG1, kappa, also called 1-A2_parental (hIgG1)) heavy chain: not shown light chain: AIEMTQTPPSLSASVGETVRIRCLASEDIYSGISWYQQKPGKPPTLLIYGASNLESGVPPRFSGSGSGTDYTLTIGGVQAEDAATYYCLGGHSHSTTDLTFGAGTKVEIKTVAAPSVFIFPPSDEQLKSGTASVVCLLNNFYPREAKVQWKVDNALQSGNSQESVTEQDSKDSTYSLSSTLTLSKADYEKHKVYACEVTHQGLSSPVTKSFNRGEC | 0.000125 |  | 
1-A2_VH-par_L1 (antibody, human IgG1, kappa, V domains shown, also called 1-A2_L1 (hIgG1K)) VH: SQSVEESGGRLVPPGTPLTLTCTVSGIDLTSNAMNWVRQAPGKGLEWIGGIYGHDTSYYAAWAKGRFTISRTSTTVDLKMTRPTTDDTATYFCARGFIYFDIWGTGTLVTISS VL: DIQMTQSPSSLSASVGDRVTITCLASEDIYSGISWYQQKPGKAPKLLIYGASNLESGVPSRFSGSGSGTDYTLTISSLQPEDFATYYCLGGHSHSTTDLTFGGGTKVEIKT | 0.00707 | 1.81e-07 | 25600
4-H3_H8_L0 (antibody, human IgG1, kappa, V domains shown, humanised, human IgG1 kappa) VH: QQLVESGGGVVQPGRSLRLSCAASGIDLTSNAMNWVRQAPGKGLEWIGGIYGHDTSYYAAWAKGRFTISRDSNTVYLQMNSLRAEDTATYFCARGFIYFDIWGQGTLVTVSS VL: DIQMTQSPSSLSASVGDRVTITCLASEDIASGISWYQQKPGKAPKLLIYGASNLESGVPSRFSGSGSGTDFTLTISSLQPEDFATYYCLGGYSFSSNGLTFGGGTKVEIKT | 0.0125 | 5.66e-07 | 45200
1-A2_H1_L1 (antibody, human IgG1, kappa, V domains shown, humanised, human IgG1 kappa) VH: QVQLVESGGGVVQPGRSLRLSCAASGIDLTSNAMNWVRQAPGKGLEWVAGIYGHDTSYYAAWAKGRFTISRDNSKNTLYLQMNSLRAEDTAVYYCARGFIYFDIWGQGTLVTVSS VL: DIQMTQSPSSLSASVGDRVTITCLASEDIYSGISWYQQKPGKAPKLLIYGASNLESGVPSRFSGSGSGTDYTLTISSLQPEDFATYYCLGGHSHSTTDLTFGGGTKVEIKT | 0.00589 | 1.4e-07 | 23800
1-A2_H0_L1 (antibody, human IgG1, kappa, V domains shown, humanised, human IgG1 kappa) VH: QVQLVESGGGVVQPGRSLRLSCAASGFTFSSNAMNWVRQAPGKGLEWVAGIYGHDTSYYAAWAKGRFTISRDNSKNTLYLQMNSLRAEDTAVYYCARGFIYFDIWGQGTLVTVSS VL: DIQMTQSPSSLSASVGDRVTITCLASEDIYSGISWYQQKPGKAPKLLIYGASNLESGVPSRFSGSGSGTDYTLTISSLQPEDFATYYCLGGHSHSTTDLTFGGGTKVEIKT | 0.0432 | 2.73e-06 | 63200
1-A2_H0_L0 (antibody, human IgG1, kappa, V domains shown, humanised, human IgG1 kappa) VH: QVQLVESGGGVVQPGRSLRLSCAASGFTFSSNAMNWVRQAPGKGLEWVAGIYGHDTSYYAAWAKGRFTISRDNSKNTLYLQMNSLRAEDTAVYYCARGFIYFDIWGQGTLVTVSS VL: DIQMTQSPSSLSASVGDRVTITCLASEDIYSGISWYQQKPGKAPKLLIYGASNLESGVPSRFSGSGSGTDFTLTISSLQPEDFATYYCLGGHSHSTTDLTFGGGTKVEIKT | 0.000231 | 2.74e-08 | 119000
1-A2_H1_L0 (antibody, human IgG1, kappa, V domains shown, humanised, human IgG1 kappa) VH: QVQLVESGGGVVQPGRSLRLSCAASGIDLTSNAMNWVRQAPGKGLEWVAGIYGHDTSYYAAWAKGRFTISRDNSKNTLYLQMNSLRAEDTAVYYCARGFIYFDIWGQGTLVTVSS VL: DIQMTQSPSSLSASVGDRVTITCLASEDIYSGISWYQQKPGKAPKLLIYGASNLESGVPSRFSGSGSGTDFTLTISSLQPEDFATYYCLGGHSHSTTDLTFGGGTKVEIKT | 0.0187 | 6.54e-07 | 34900

Second part, the binder after the results:

Kd [nM] | koff [s⁻¹] | kon [M⁻¹ s⁻¹] | Binder
0.318 | 7.8e-06 | 24500 | 1-A2_H2_VL-par (antibody, human IgG1, kappa, V domains shown, also called 1-A2_H2 (hIgG1)) VH: QQLVESGGGVVQPGRSLRLSCAASGIDLTSNAMNWVRQAPGKGLEWIGGIYGHDTSYYAAWAKGRFTISRDSNTVYLQMNSLRAEDTATYFCARGFIYFDIWGQGTLVTVSS VL: AIEMTQTPPSLSASVGETVRIRCLASEDIYSGISWYQQKPGKPPTLLIYGASNLESGVPPRFSGSGSGTDYTLTIGGVQAEDAATYYCLGGHSHSTTDLTFGAGTKVEIKT
0.0104 | 3.05e-07 | 29300 | 4-H3_H7_VL-par (antibody, human IgG1, kappa, V domains shown, also called 4-H3_H7 (hIgG1)) VH: QVQLVESGGGVVQPGRSLRLSCAASGIDLTSNAMNWVRQAPGKGLEWIGGIYGHDTSYYAAWAKGRFTISRDNSKNTVYLQMNSLRAEDTATYFCARGFIYFDIWGQGTLVTVSS VL: AYDMTQTPPSLSASVGETVRIRCLASEDIASGISWYQQKPGKPPTLLIYGASNLESGVPPRFSGSGSGTDYTLTIGGVQAEDAATYYCLGGYSFSSNGLTFGAGTKVEIKT
0.00655 | 3.63e-07 | 55300 | 4-H3_H6_VL-par rep (antibody, human IgG1, kappa, also called 4-H3_H6 (hIgG1)) heavy chain: not shown light chain: AYDMTQTPPSLSASVGETVRIRCLASEDIASGISWYQQKPGKPPTLLIYGASNLESGVPPRFSGSGSGTDYTLTIGGVQAEDAATYYCLGGYSFSSNGLTFGAGTKVEIKTVAAPSVFIFPPSDEQLKSGTASVVCLLNNFYPREAKVQWKVDNALQSGNSQESVTEQDSKDSTYSLSSTLTLSKADYEKHKVYACEVTHQGLSSPVTKSFNRGEC
0.0717 |  |  | 4-H3_VH-par_VL-par (antibody, human IgG1, kappa, also called 4-H3_parental (hIgG1)) heavy chain: not shown light chain: AYDMTQTPPSLSASVGETVRIRCLASEDIASGISWYQQKPGKPPTLLIYGASNLESGVPPRFSGSGSGTDYTLTIGGVQAEDAATYYCLGGYSFSSNGLTFGAGTKVEIKTVAAPSVFIFPPSDEQLKSGTASVVCLLNNFYPREAKVQWKVDNALQSGNSQESVTEQDSKDSTYSLSSTLTLSKADYEKHKVYACEVTHQGLSSPVTKSFNRGEC
0.0173 | 9.15e-07 | 52800 | 4-H3_H8_L1 (antibody, human IgG1, kappa, V domains shown, humanised, human IgG1 kappa) VH: QQLVESGGGVVQPGRSLRLSCAASGIDLTSNAMNWVRQAPGKGLEWIGGIYGHDTSYYAAWAKGRFTISRDSNTVYLQMNSLRAEDTATYFCARGFIYFDIWGQGTLVTVSS VL: DYQMTQSPSSLSASVGDRVTITCLASEDIASGISWYQQKPGKAPKLLIYGASNLESGVPSRFSGSGSGTDYTLTISSLQPEDFATYYCLGGYSFSSNGLTFGGGTKVEIKT
0.0125 | 7.44e-07 | 59600 | 1-A2_VH-par_L0 (antibody, human IgG1, kappa, V domains shown, also called 1-A2_L0 (hIgG1K)) VH: SQSVEESGGRLVPPGTPLTLTCTVSGIDLTSNAMNWVRQAPGKGLEWIGGIYGHDTSYYAAWAKGRFTISRTSTTVDLKMTRPTTDDTATYFCARGFIYFDIWGTGTLVTISS VL: DIQMTQSPSSLSASVGDRVTITCLASEDIYSGISWYQQKPGKAPKLLIYGASNLESGVPSRFSGSGSGTDFTLTISSLQPEDFATYYCLGGHSHSTTDLTFGGGTKVEIKT
0.00173 | 8.46e-08 | 48800 | 4-H3_VH-par_L0 (antibody, human IgG1, kappa, V domains shown, also called 4-H3_L0 (hIgG1K)) VH: SQSLEESGGRLVPPGTPLTLTCTVSGIDLTSNAMNWVRQAPGKGLEWIGGIYGHDTSYYAAWAKGRFTISRTSTTVDLKMTRPTTDDTATYFCARGFIYFDIWGTGTLVTISS VL: DIQMTQSPSSLSASVGDRVTITCLASEDIASGISWYQQKPGKAPKLLIYGASNLESGVPSRFSGSGSGTDFTLTISSLQPEDFATYYCLGGYSFSSNGLTFGGGTKVEIKT
0.00203 | 3.84e-08 | 19000 | 1-A2_H2_L1 (antibody, human IgG1, kappa, V domains shown, humanised, human IgG1 kappa) VH: QQLVESGGGVVQPGRSLRLSCAASGIDLTSNAMNWVRQAPGKGLEWIGGIYGHDTSYYAAWAKGRFTISRDSNTVYLQMNSLRAEDTATYFCARGFIYFDIWGQGTLVTVSS VL: DIQMTQSPSSLSASVGDRVTITCLASEDIYSGISWYQQKPGKAPKLLIYGASNLESGVPSRFSGSGSGTDYTLTISSLQPEDFATYYCLGGHSHSTTDLTFGGGTKVEIKT
0.00143 | 1.75e-08 | 12300 | 4-H3_VH-par_L1 (antibody, human IgG1, kappa, V domains shown, also called 4-H3_L1 (hIgG1K)) VH: SQSLEESGGRLVPPGTPLTLTCTVSGIDLTSNAMNWVRQAPGKGLEWIGGIYGHDTSYYAAWAKGRFTISRTSTTVDLKMTRPTTDDTATYFCARGFIYFDIWGTGTLVTISS VL: DYQMTQSPSSLSASVGDRVTITCLASEDIASGISWYQQKPGKAPKLLIYGASNLESGVPSRFSGSGSGTDYTLTISSLQPEDFATYYCLGGYSFSSNGLTFGGGTKVEIKT
0.0969 | 3.5e-06 | 36100 | 1-A2_H2_L0 (antibody, human IgG1, kappa, V domains shown, humanised, human IgG1 kappa) VH: QQLVESGGGVVQPGRSLRLSCAASGIDLTSNAMNWVRQAPGKGLEWIGGIYGHDTSYYAAWAKGRFTISRDSNTVYLQMNSLRAEDTATYFCARGFIYFDIWGQGTLVTVSS VL: DIQMTQSPSSLSASVGDRVTITCLASEDIYSGISWYQQKPGKAPKLLIYGASNLESGVPSRFSGSGSGTDFTLTISSLQPEDFATYYCLGGHSHSTTDLTFGGGTKVEIKT
